The record followed here is publication PMC7082078 (Cell reports, 2020).

What all share (experiment): AUC
Data set [1] has as its target Xenopus pcdh8.2 (PAPC) full ectodomain (EC1–EC6) (Xenopus).
In data set [2] the target is human pcdh7 EC1–EC4 fragment (human).
Data set [3] addresses human pcdh10 EC1–EC3 fragment (human).
Data set [4] deals with human pcdh17 full ectodomain (EC1–EC6) (human).
The target in data set [5] is human pcdh8 EC5–EC6 fragment (human).
In data set [6] the target is mouse pcdh7 full ectodomain (EC1–EC7) (mouse).
The target in data set [7] is human pcdh10 EC1–EC4 fragment (human).
Data set [8] deals with mouse pcdh7 EC1–EC4 fragment (mouse).
Data set [9] deals with human pcdh10 EC5–EC6 fragment (human).
Data set [10] deals with human pcdh9 EC1–EC4 fragment (human).
For data set [11], the target named is human pcdh10 full ectodomain (EC1–EC6) (human).
For data set [12], the target named is human pcdh18 full ectodomain (EC1–EC6) (human).
Data set [13] addresses human pcdh12 full ectodomain fragment (EC1–EC6) (human).
Data set [14] deals with Xenopus pcdh8.1 full ectodomain (EC1–EC6) (Xenopus).
The target in data set [15] is human pcdh11Y full ectodomain (EC1–EC7) (human).
Data set [16] concerns the molecule itself.

A word on the stoichiometry N: it is a count of units in the complex or per binding partner. In data set [1], “Xenopus pcdh8.2 (PAPC) full ectodomain (EC1–EC6) (domain or fragment)” registered a stoichiometry N of 2. As a reminder, the Kd is the free concentration of one partner at which half of the binding sites on the other are occupied at equilibrium, for simple one-to-one binding. A higher Kd goes with a looser complex. Regarding “human pcdh7 EC1–EC4 fragment (domain or fragment)”, in data set [2], the Kd is 2.7 µM and the stoichiometry N amounted to 2. In data set [3], “human pcdh10 EC1–EC3 fragment (domain or fragment)” gave a Kd of 280 µM and a stoichiometry N of 2. For the molecule “human pcdh17 full ectodomain (EC1–EC6) (domain or fragment)”, in data set [4], the Kd amounted to 4.8 µM and the stoichiometry N turned out to be 2. In data set [5], “human pcdh8 EC5–EC6 fragment (domain or fragment)” came in with a Kd above 1000 µM. In data set [6], “mouse pcdh7 full ectodomain (EC1–EC7) (domain or fragment)” displayed a Kd of 8.2 µM and a stoichiometry N of 2.

In data set [7], “human pcdh10 EC1–EC4 fragment (domain or fragment)” displayed a Kd of 0.68 µM and a stoichiometry N of 2. In data set [8], “mouse pcdh7 EC1–EC4 fragment (domain or fragment)” showed a Kd of 4.1 µM and a stoichiometry N of 2. On to “human pcdh10 EC5–EC6 fragment (domain or fragment)”, for which the equilibrium dissociation constant (Kd) in data set [9] was above 1000 µM. Take “human pcdh9 EC1–EC4 fragment (domain or fragment)”: in data set [10], the Kd is 2 µM and the stoichiometry N was determined as 2.

In the case of “human pcdh10 full ectodomain (EC1–EC6) (domain or fragment)”, in data set [11], the Kd is 3.6 µM and the stoichiometry N is 2. Take “human pcdh18 full ectodomain (EC1–EC6) (domain or fragment)”: in data set [12], the Kd is 2.7 µM and the stoichiometry N was found to be 2. Consider “human pcdh12 full ectodomain fragment (EC1–EC6) (domain or fragment)”, for which the stoichiometry N in [13] came to 2.

In [14], “Xenopus pcdh8.1 full ectodomain (EC1–EC6) (domain or fragment)” yielded a Kd of 3.5 µM and a stoichiometry N of 2. Take “human pcdh11Y full ectodomain (EC1–EC7) (domain or fragment)”: in data set [15], the Kd was found to be 7.8 µM and the stoichiometry N turned out to be 2.

B1: human pcdh1 EC1–EC4 fragment (domain or fragment)
chain: TRVVYKVPEEQPPNTLIGSLAADYGFPDVGHLYKLEVGAPYLRVDGKTGDIFTTETSIDREGLRECQNQLPGDPCILEFEVSITDLVQNGSPRLLEGQIEVQDINDNTPNFASPVITLAIPENTNIGSLFPIPLASDRDAGPNGVASYELQAGPEAQELFGLQVAEDQEEKQPQLIVMGNLDRERWDSYDLTIKVQDGGSPPRASSALLRVTVLDTNDNAPKFERPSYEAELSENSPIGHSVIQVKANDSDQGANAEIEYTFHQAPEVVRRLLRLDRNTGLITVQGPVDREDLSTLRFSVLAKDRGTNPKSARAQVVVTVKDMNDNAPTIEIRGIGLVTHQDGMANISEDVAEETAVALVQVSDRDEGENAAVTCVVAGDVPFQLRQASETGSDSKKKYFLQTTTPLDYEKVKDYTIEIVAVDSGNPPLSSTNSLKVQVVD
As for B1, in data set [16], the Kd was 0.53 µM and the “stoichiometry N” value stood at 2.

B2: human pcdh1 full ectodomain (EC1–EC7) (domain or fragment)
chain: TRVVYKVPEEQPPNTLIGSLAADYGFPDVGHLYKLEVGAPYLRVDGKTGDIFTTETSIDREGLRECQNQLPGDPCILEFEVSITDLVQNGSPRLLEGQIEVQDINDNTPNFASPVITLAIPENTNIGSLFPIPLASDRDAGPNGVASYELQAGPEAQELFGLQVAEDQEEKQPQLIVMGNLDRERWDSYDLTIKVQDGGSPPRASSALLRVTVLDTNDNAPKFERPSYEAELSENSPIGHSVIQVKANDSDQGANAEIEYTFHQAPEVVRRLLRLDRNTGLITVQGPVDREDLSTLRFSVLAKDRGTNPKSARAQVVVTVKDMNDNAPTIEIRGIGLVTHQDGMANISEDVAEETAVALVQVSDRDEGENAAVTCVVAGDVPFQLRQASETGSDSKKKYFLQTTTPLDYEKVKDYTIEIVAVDSGNPPLSSTNSLKVQVVDVNDNAPVFTQSVTEVAFPENNKPGEVIAEITASDADSGSNAELVYSLEPEPAAKGLFTISPETGEIQVKTSLDREQRESYELKVVAADRGSPSLQGTATVLVNVLDCNDNDPKFMLSGYNFSVMENMPALSPVGMVTVIDGDKGENAQVQLSVEQDNGDFVIQNGTGTILSSLSFDREQQSTYTFQLKAVDGGVPPRSAYVGVTINVLDENDNAPYITAPSNTSHKLLTPQTRLGETVSQVAAEDFDSGVNAELIYSIAGGNPYGLFQIGSHSGAITLEKEIERRHHGLHRLVVKVSDRGKPPRYGTALVHLYVNETLANRTLLETLLGHSLDTPLDIDIAGDPEYERSKQRGN
As to B2, in [16], the Kd was found to be 1.2 µM and the “stoichiometry N” value came out at 2.

B3: human pcdh9 full ectodomain (EC1–EC7) (domain or fragment)
chain: QELIYTIREELPENVPIGNIPKDLNISHINAATGTSASLVYRLVSKAGDAPLVKVSSSTGEIFTTSNRIDREKLCAGASYAEENECFFELEVVILPNDFFRLIKIKIIVKDTNDNAPMFPSPVINISIPENTLINSRFPIPSATDPDTGFNGVQHYELLNGQSVFGLDIVETPEGEKWPQLIVQQNLDREQKDTYVMKIKVEDGGTPQKSSTAILQVTVSDVNDNRPVFKEGQVEVHIPENAPVGTSVIQLHATDADIGSNAEIRYIFGAQVAPATKRLFALNNTTGLITVQRSLDREETAIHKVTVLASDGSSTPARATVTINVTDVNDNPPNIDLRYIISPINGTVYLSEKDPVNTKIALITVSDKDTDVNGKVICFIEREVPFHLKAVYDNQYLLETSSLLDYEGTKEFSFKIVASDSGKPSLNQTALVRVKLEDENDNPPIFNQPVIELSVSENNRRGLYLTTISATDEDSGKNADIVYQLGPNASFFDLDRKTGVLTASRVFDREEQERFIFTVTARDNGTPPLQSQAAVIVTVLDENDNSPKFTHNHFQFFVSENLPKYSTVGVITVTDADAGENKAVTLSILNDNDNFVLDPYSGVIKSNVSFDREQQSSYTFDVKATDGGQPPRSSTAKVTINVMDVNDNSPVVISPPSNTSFKLVPLSAIPGSVVAEVFAVDVDTGMNAELKYTIVSGNNKGLFRIDPVTGNITLEEKPAPTDVGLHRLVVNISDLGYPKSLHTLVLVFLYVNDTAGNASYIYDLIRRTMETPLDRNIGDSSQPYQNEDYLT
For B3, in data set [16], the affinity, expressed as Kd, was 2.03 µM and the “stoichiometry N” value was 2.

B4: human pcdh19 full ectodomain (EC1–EC6) (domain or fragment)
chain: LINLKYSVEEEQRAGTVIANVAKDAREAGFALDPRQASAFRVVSNSAPHLVDINPSSGLLVTKQKIDRDLLCRQSPKCIISLEVMSSSMEICVIKVEIKDLNDNAPSFPAAQIELEISEAASPGTRIPLDSAYDPDSGSFGVQTYELTPNELFGLEIKTRGDGSRFAELVVEKSLDRETQSHYSFRITALDGGDPPRLGTVGLSIKVTDSNDNNPVFSESTYAVSVPENSPPNTPVIRLNASDPDEGTNGQVVYSFYGYVNDRTRELFQIDPHSGLVTVTGALDYEEGHVYELDVQAKDLGPNSIPAHCKVTVSVLDTNDNPPVINLLSVNSELVEVSESAPPGYVIALVRVSDRDSGLNGRVQCRLLGNVPFRLQEYESFSTILVDGRLDREQHDQYNLTIQARDGGVPMLQSAKSFTVLITDENDNHPHFSKPYYQVIVQENNTPGAYLLSVSARDPDLGLNGSVSYQIVPSQVRDMPVFTYVSINPNSGDIYALRSFNHEQTKAFEFKVLAKDGGLPSLQSNATVRVIILDVNDNTPVITAPPLINGTAEVYIPRNSGIGYLVTVVKAEDYDEGENGRVTYDMTEGDRGFFEIDQVNGEVRTTRTFGESSKSSYELIVVAHDHGKTSLSASALVLIYLSPALDAQESMGSVNLS
As to B4, in [16], the Kd came to 0.48 µM and the “stoichiometry N” value was 2.
